Data published in patent publication US6919434.

Target: the molecule itself
Test: SDS-PAGE under reducing and non-reducing conditions (60 kD against 120 kD)
Experimental: The two protein peaks with OCIF activity (peaks 6 and 7) were subjected to SDS-polyacrylamide gel electrophoresis under reducing and non-reducing conditions. Briefly, 20 μL of each peak fraction was concentrated under vacuum and dissolved in 1.5 μL of 10 mM Tris-HCl, pH 8, 1 mM EDTA, 2.5% SDS, 0.01% bromophenol blue, and incubated at 37° C. overnight under non-reducing conditions or under reducing conditions (with 5% of 2-mercaptoethanol). Each 1.0 μL of sample was then analyzed by SDS-polyacrylamide gel electrophoresis with a gradient gel of 10–15% acrylamide (Pharmacia Co.) and an electrophoresis-device (Fast System, Pharmacia Co.). The following molecular weight marker proteins were used to calculate molecular weight: phosphorylase b (94 kD), bovine serum albumin (67 kD), ovalbumin (43 kD), carbonic anhydrase (30 kD), trypsin inhibitor ([…]), and lactalbumin (14.4 kD). After electrophoresis, protein bands were visualized by silver stain using Phast Silver Stain Kit.

B1: osteoclastogenesis inhibitory factor (OCIF) (other)
chain: ETFPPKYLHYDEETSHQLLCDKCPPGTYLKQHCTAKWKTVCAPCPDHYYTDSWHTSDECLYCSPVCKELQYVKQECNRTHNRVCECKEGRYLEIEFCLKHRSCPPGFGVVQAGTPERNTVCKRCPDGFFSNETSSKAPCRKHTNCSVFGLLLTQKGNATHDNICSGNSESTQKCGIDVTLCEEAFFRFAVPTKFTPNWLSVLVDNLPGTKVNAESVERIKRQHSSQEQTFQLLKLWKHQNKDQDIVKKIIQDIDLCENSVQRHIGHANLTFEQLRSLMESLPGKKVGAEDIEKTIKACKPSDQILKLLSLWRIKNGDQDTLKGLMHALKHSKTYHFPKTVTQSLKKTIRFLHSFTMYKLYQKLFLEMIGNQVQSVKISCL
notes: Secreted glycoprotein, present as a 60 kD monomer and a 120 kD homodimer under non-reducing conditions; Natural OCIF from IMR-90 medium coated the plates in the hybridoma ELISA; Recombinant OCIF was the standard in the polyclonal EIA; Unaltered OCIF in 293/EBNA conditioned medium was used in the western blot; also called nOCIF; natural OCIF
binding result: binds
